The record followed here is patent US20250355001A1 (GTINVENT, published 2025).

Where two headings read alike, the source gives them in different places.

Test [1] addresses T1, dGAE (tau 297-391) (human, UniProt P10636 614-708).
T1 construct: monomer; also called dGAE95
The test can be described thus: SPR, scAb captured, tau analyte. As for the experimental part:
(§1) The capture antibody was diluted 1/100 in 10 mM Sodium acetate buffer pH 5.0 and passed over the activated chip surface for a period of at least 420 s. Final ligand immobilisation levels over 12,000 RU were deemed to be satisfactory.
(§2) The scAb to be tested was added only to flow cell 2 so that flow cell 1 could act as a control to subtract any interaction with the analyte and the chip surface. […] The multi-cycle protocol was as follows-Three start-up cycles composed of an initial capture, to the desired level, of the scAb to be tested was performed followed by a 30 s injection of glycine buffer pH 2.0 after each cycle to regenerate the chip surface. […] The target was added for a 120 s association period and 420 s dissociation period followed by another regeneration, 30 s injection of glycine buffer pH 2.0 in between each cycle.
(§3) The single cycle kinetics protocol was similar and utilised the same level of scAb capture. […] In single cycle kinetics the regeneration step was performed only after the final analyte concentration was added. Binding responses were analysed in Biacore X100 evaluation software and data fitted to a 1:1 binding model to obtain kinetic and affinity characterisation.
(In general: SPR reads the build-up and loss of mass on a sensor chip optically.)

The target of test [2] is dGA (tau 297-390) (human, UniProt P10636 614-707). Kind of test: direct ELISA. As for the experimental part:
(§4) A series of binding ELISA was performed using various truncated versions of the tau protein and 13mer peptide libraries spanning the entire hT40 molecule for mapping the epitopes of anti-tau scAbs (Full list of protein antigens used is given in Table 14). In general, ELISA plates were coated with 1 μg/ml hT40 or dGA or dGAE or other truncated versions of the protein and in the case of biotinylated peptides, plates were coated with 5 μg/ml Streptavidin followed by 1 μg/ml biotinylated peptide. The plates were blocked with 2% MPBS and scAb samples added at desired starting concentrations and double diluted across the plate. Binding was detected using anti-Human C Kappa HRP conjugated secondary antibody and the resulting immunoreaction was developed and absorbance values measured as described above.
For orientation: In an ELISA, binding on a coated surface is turned into a signal by an enzyme label.

Test [3] addresses T2, full length human tau protein 2N4R (hT40) (human, UniProt P10636 1-758).
T2 construct: recombinant; also called T441
The test can be described thus: direct ELISA. As for the experimental part:
as §4

The target in test [4] is T2, full length human tau protein 2N4R …. Kind of test: hT40 ELISA.
Target sequence in this assay (P10636 other isoform, or with tags, fused parts or gaps limits assumed): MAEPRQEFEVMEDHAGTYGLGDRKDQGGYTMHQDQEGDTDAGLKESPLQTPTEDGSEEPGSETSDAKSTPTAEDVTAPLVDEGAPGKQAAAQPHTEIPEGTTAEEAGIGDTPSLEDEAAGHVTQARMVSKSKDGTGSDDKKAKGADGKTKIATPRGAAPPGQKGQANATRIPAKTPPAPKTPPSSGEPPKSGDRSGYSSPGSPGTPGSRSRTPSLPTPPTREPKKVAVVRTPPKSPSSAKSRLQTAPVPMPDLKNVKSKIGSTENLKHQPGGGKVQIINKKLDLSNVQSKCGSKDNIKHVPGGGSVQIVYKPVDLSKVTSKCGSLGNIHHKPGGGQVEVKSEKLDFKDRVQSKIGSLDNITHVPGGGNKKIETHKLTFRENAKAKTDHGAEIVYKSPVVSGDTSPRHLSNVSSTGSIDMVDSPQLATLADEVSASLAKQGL
For test [5], the target named is T3, aggregated dGAE (human, UniProt P10636 614-708, limits assumed).
T3 construct: dGAE aggregated in vitro with DTT, 700 rpm, 37 C, 24 h; also called dGAE aggregates; dGAE agg
T3 sequence (P10636 614-708 limits assumed): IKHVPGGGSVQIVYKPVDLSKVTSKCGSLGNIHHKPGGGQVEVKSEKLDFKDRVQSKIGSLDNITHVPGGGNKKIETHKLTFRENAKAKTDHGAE
Kind of test: sandwich ELISA, S1D12 mAb capture, SDS + Triton treated dGAE aggregates. Here is the method:
For aggregation, 1000 μL 100 μM dGAE+10 μL 10 mM DTT was added to a ‘LoBind’ microfuge tubes and agitated at 700 RPM/37° C. for 24 hours. Resulting sample centrifuged at 17,000×g/4° C. for 60 min and supernatant discarded to remove left over monomer. Pellet resuspended in half the original volume for future experiments and hereafter referred to as ‘aggregates’. 1 μl of aggregates was added to 1 ml of PBS and SDS was added to a final concentration of 1% (w/v). This was left to incubate on lab bench for 1 h with gentle agitation every 15 minutes. In order to neutralize the SDS effect on ELISA, Triton X-100 added to a final concentration of 3% (v/v) and mixed gently by pipetting to prevent any bubble formation. […] Similarly aggregates treated with only SDS or Triton X-100, untreated aggregates, dGAE monomers treated with only SDS or SDS+Titon X-100 were also added to designated wells as controls. All samples were then double diluted across the plate in final volumes of 100 μl. The final column was left with no protein to act as a blank.

Test [6] has as its target T3, aggregated dGAE. Kind of test: ELISA, direct immobilisation, SDS + Triton treated dGAE aggregates.
Test [7] concerns the target T2, full length human tau protein 2N4R …. Kind of test: SPR, scAb captured, tau analyte. Here is the method:
as §1, §2, §3
Target sequence in this assay (P10636 other isoform, or with tags, fused parts or gaps limits assumed): as the sequence (P10636 other isoform, or with tags, fused parts or gaps limits assumed) above

Test [8] has as its target T4, tau fragment 1-49 (human).
T4 construct: also called Tau 1-49
T4 peptide: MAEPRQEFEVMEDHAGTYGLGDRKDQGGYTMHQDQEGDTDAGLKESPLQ
Kind of test: direct ELISA. Here is the method: as §4

The target in test [9] is tau fragment 1-155 (human, UniProt P10636 1-472). The test can be described thus: direct ELISA. As for the experimental part: as §4
Test [10] concerns the target T5, biotinylated tau peptide 412-441 (N-terminal biotin).
T5 peptide: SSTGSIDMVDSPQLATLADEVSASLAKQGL
The test can be described thus: ELISA on biotinylated 412-441 peptide. As for the experimental part: as §4

Test [11] addresses T2, full length human tau protein 2N4R …. The test can be described thus: SPR, summary table. As for the experimental part:
as §1, §2, §3
Target sequence in this assay (P10636 other isoform, or with tags, fused parts or gaps limits assumed): as the sequence (P10636 other isoform, or with tags, fused parts or gaps limits assumed) above

Test [12] shares this target. Kind of test: hT40 ELISA. As for the experimental part: as §4
The source holds these as a separate data set.

For test [13] the target is unchanged. The test can be described thus: Biacore. Here is the method:
as §1, §2, §3
Target sequence in this assay (P10636 other isoform, or with tags, fused parts or gaps limits assumed): as the sequence (P10636 other isoform, or with tags, fused parts or gaps limits assumed) above

Test [14] has the same target. Kind of test: hT40 ELISA. This is another data set of the same source.
Target sequence in this assay (P10636 other isoform, or with tags, fused parts or gaps limits assumed): as the sequence (P10636 other isoform, or with tags, fused parts or gaps limits assumed) above
The target is the same in test [15]. The test can be described thus: sandwich ELISA, S1D12 mAb capture, scAb detection. Here is the method: Full length tau (hT40), at 1 μg/ml starting concentration was added to designated wells and double diluted across rest of the plates and left to incubate at R/T for 1 h. A series of detection scAbs with varying epitope recognition properties were added at 10 μg/ml to designated wells (FIG. 22). For colourimetric detection HRP conjugated anti-HuCk secondary antibody was used and the resulting immunoreaction was developed and absorbance at 450 nm measured as described previously. Cut-off point for a positive binding event was an absorbance value of 0.3 following background subtraction. In order to enhance the assay sensitivity, a chemiluminescent detection method was adopted where 50 μL SuperSignal ELISA Femto Substrate (Thermo Scientific) was added to each well following incubation with anti-HuCK HRP antibody and subsequent washing. The luminescence was read using Clariostar Plus microplate reader. A further modification to this protocol was done where various detection scAbs were directly conjugated with HRP and detected using chemiluminescent protocol as before.
Target sequence in this assay (P10636 other isoform, or with tags, fused parts or gaps limits assumed): as the sequence (P10636 other isoform, or with tags, fused parts or gaps limits assumed) above

T1 sequence (P10636 614-708 limits assumed): as the sequence (P10636 614-708 limits assumed) above
Sequence of dGA (tau 297-390) (P10636 614-707 limits assumed): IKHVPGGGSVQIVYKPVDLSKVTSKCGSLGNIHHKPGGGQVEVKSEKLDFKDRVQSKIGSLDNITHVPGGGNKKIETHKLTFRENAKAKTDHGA

B1: E1E8 scAb (scFv, not shown: small tags and cut ends)
scFv: QVQLQESGPSLVKPSQTLSLTCTVSGFSLTDWGVAWVRQAPGKALEWLGTMRSGGTTDDNPALKSRLSITRDTSKSQVSLSLSSVTTEDMAMYYCARGYLSGVHYAWGRGLLVTVSSEGKSSGASGESKVDDQAVLTQPSSVSGSLGQSVSITCSGSSSNVGDGRYVSWFQQVPGSAPKLLIYDTTSRASGVPDRFSGSRSGNTATLIITSLQAEDEADYYCASIDSGNNLLFGSGTRLTVLG
notes: scAb
As usually defined, the Kd is a measure of binding affinity in units of concentration. A high value points to lower affinity. For orientation: koff means the rate constant with which the complex falls apart. The term kon denotes the rate constant with which the complex forms. A low value points to slower complex formation. For the molecule B1, in [1], the Kd was 6.3 nM, the koff stood at 0.0014 s⁻¹ and the on-rate (kon) worked out at 154000 M⁻¹ s⁻¹. Further, the binding result in [2] is reported as “no binding (tested: 25 ug/ml)”. Also, the binding result in [3] was “no binding (tested: 25 ug/ml)”.

B2: CA12 scAb (scFv, not shown: small tags and cut ends)
scFv: QVQLQGSGPSLVKPSQTLSLTCTVSGFSFDSYYVGWVRQAPGKALEWLGNIYSTGRAFYNPALKSRLSITRDTSKSQVSLSVSSVTIEDTALYYCVRGSYYHGGGNGMVDFFDYWSPGLLVTVSSEGKSSGASGESKVDDQVVRTQPSSVSGSLGQRVSITCSGSSSNVGYGNYVGWFQQVPGSAPKLLIYAATSRASGVPDRFSGSRSGNTATLTIDSLQAEDEADYYCSSYQRGNTGVFGSGTRLTVLG
notes: scAb
As usually defined, the EC50 (read off the curve) is the concentration needed to bring the measured effect to its halfway point. Read a high EC50 (read off the curve) as a need for much substance. For the molecule B2, in test [4], the “EC50 (read off the curve)” value is about 0.02 µg/mL. Further, the values for the LoD in [5] and in test [6] were 2 ng/mL and 16 ng/mL, respectively.

B3: 3bG4 scAb (scFv, not shown: small tags and cut ends)
scFv: QVQLQESGPSLVKPSQTLSLTCTISGFSLISNGVGWVRQAPGKVPEWVGDIASSGKAYSNPALKSRLSITRDTSKSQVSLSLRSVTTEDTAVYYCVRCRDGGVTYGYDIDYWGPGLLVTVSSEGKSSGASGESKVDDQAVLTQPSSVSKSLGQSVSITCSGSTSNVGSGNDVSWFQQVPGSAPKLLFYGATNRASGVPDRFSGSRSGNTATLTITSLQAEDEADYYCGSYDSNSGGIFGSGTRLTVLG
notes: scAb
For the molecule B3, in test [7], the Kd was 8.9 nM, the koff turned out to be 0.0597 s⁻¹ and the kon was 6.67e+06 M⁻¹ s⁻¹. In addition, in [8], the binding result is reported as “binds”.

B4: 3aB7 scAb (scFv, not shown: small tags and cut ends)
scFv: QVQLQESGPSLVKPSQTLSLTCTVSGFSLTSNGVGWVRQAPGKVPEWVGDKSSAGKTYGNPALKSRLSITRDTSKSQVSLSLSSVTTEDTAVYYCVRCRDGGVTYGYDVDYWGPGLLVTVSSEGKSSGASGESKVDDQAVLTQPSSVSKSLGQSVSITCSGSSSNVGYGDVVSWFQQFPGSAPKLLIFGTTTRASGVPDRFSGSRSGNAATLTINSLQAEDEADYYCASFDSDSGGIAGSGTRLTVLG
notes: scAb
In test [7], B4 came in with a Kd of 69 nM, a koff of 0.0143 s⁻¹ and a kon of 207000 M⁻¹ s⁻¹. Moreover, in [9], the “EC50 (read off the curve)” value was about 0.8 µg/mL.

B5: 3aD3 scAb (scFv, not shown: small tags and cut ends)
scFv: QVQLQESGPSLVKPSQTLSLTCTVSGFSLTSNGVGWVRRAPGKVPEWVGDISSGGKVYGHPALKSRLSITRDTSKSQVSLSVSSVTSEDTAVYYCVRCRDGGVSYGYDSDYWGPGLLVTVSSEGKSSGASGESKVDDQAVVTQPSSVSKSLGQSVSITCSGSSSNVGYGDYVGWFQQVPGSAPKLLIYGVTERASGVPDRFSGSRSGNTATLTISSIQAEDEADYYCASYDDSSGGIFGSGTRLTVLG
notes: scAb
With B5, in [7], binding was put at a Kd of 19.1 nM, the off-rate (koff) is 0.0104 s⁻¹ and the kon was 544000 M⁻¹ s⁻¹. Besides, the binding result in test [8] is “binds”.

B6: 412B9 (scFv)
scAb: QVQLQESGPSLVKPSQTLSLTCTVSGFSVISDSVAWVRQAPGKVPEWLGASGSSGNKYYNPALKSRLSITRDTSKSQVSLSLSSVTTEDTAVYYCARGIIAGVDVWGRGLLVSVSSEGKSSGASGESKVDDQAVLTQPSSVSGALGQRVSITCSGSSSNVGYGDYVGWYQQVPGSAPKLLIYGAASRASGVPDRFSGSRSGNTATLTISSLQAEDEADYYCASYDSSDGGVFGSGTRLTVLG
Consider B6, for which the half-maximal effective concentration (EC50 (read off the curve)) in test [10] is about 2 µg/mL.

B7: 3aH6 scAb (scFv, not shown: small tags and cut ends)
scFv: QVQLQESGPSLVKPSQTLSLTCTVSGFSLSSNGVGWVRQAPGKVPEWLGDISSVGKKYANPALKSRLSFTRDTSKSQVSLSLSSVTTEDTAVYYCVKCRDGGVTYGYDIDYWGPGLLVTASSEGKSSGASGESKVDDQAVVTQPSSVSGSLGQSVSITCSGSSGNVGYGDYVSWFQQFHGSAPKLLIYGATNLASGVPARFSGSRSGNTATLTISSLHAEDEADYYCASYDSSSGGVFGSGTRLTVLG
notes: scAb
Take B7: in test [7], the Kd came to 3.6 nM, the koff came to 0.00987 s⁻¹ and the on-rate (kon) is 2.76e+06 M⁻¹ s⁻¹. In test [8], the binding result was “binds”.

B8: 412E10 scAb (scFv, not shown: small tags and cut ends)
scFv: QVQLQESGPSLVKPSQTLSLTCTVSGFSVISDSVAWVRQAPGKVPEWLGASGSSGNKYYNPALKSRLSITRDTSKSQVSLSLSSVTTEDTAVYYCARGIIAGVDVWGRGLLVTVSSEGKSSGASGESKVDDQAVLTQPSSVSGSLGQRVSITCSGSSSNVGYGNYVGWYQQVPGSAPKLLIYGTAIRASGVPDRFSGSRSGDTATLTITSLQAEDEADYYCASYQSNYAFFGSGTRLTVLG
notes: scAb
Regarding B8, the values for the Kd in [7], in [11] and in test [13] were 3.16 nM, 3.16 nM and 3.3 nM, respectively. Further, in test [7], the koff came to 0.00085 s⁻¹. This molecule returned a kon in test [7] of 271000 M⁻¹ s⁻¹. Besides, the figures for the “EC50 (read off the curve)” value in test [12], in test [10] and in [14] were about 1 µg/mL, about 0.4 µg/mL and about 1 µg/mL, respectively. For the same molecule, the LoD chemiluminescence detection in test [15] is 0.37 ng/mL. In test [15], this molecule yielded a LoD colourimetric detection of 20 ng/mL.

B9: 412E6 (scFv)
scAb: QVQLQESGPSLVKPSETLSLTCTVSGFSLTNYGVGWVRQAPGKALEWLGNIYSGGSTYYNPALKSRLSITRDTSKSQVSLSLNSVTLEDTAVYYCGRGGVGSVDVWGPGLLVTVSSEGKSSGASGESKVDDQAVLTQPPSVSGSPGQRVSITCSGGRNNIGRGTFVDWYQQLPGSGLKTVIYGTDRRPPGVPDRFSGSKTGNAATLTITSLQAEDEADYWCATYDYSNDMIILGSGTRLTVLG
Turning to B9, the “EC50 (read off the curve)” value in [12] was about 6 µg/mL; in test [10], about 2 µg/mL; in test [14], about 6 µg/mL.
